From EP4725507A1, “POLYPEPTIDE CONJUGATE, PHARMACEUTICAL COMPOSITION CONTAINING POLYPEPTIDE CONJUGATE AND USE THEREOF” (Nanjing Anji Biotechnology Co., Ltd., priority 2023, dated 2025)
Values after ≈ are worked out from the molar mass of the structure shown. Like-named read-outs stand apart in the source and are kept apart here. Peptide text beside a SMILES is read from it. * marks the point of attachment. Paclitaxel(2'-O-succinyl) = CC(=O)O[C@H]1C(=O)[C@@]2(C)[C@H]([C@H](OC(=O)c3ccccc3)[C@]3(O)C[C@H](OC(=O)[C@H](OC(=O)CCC(=O)*)[C@@H](NC(=O)c4ccccc4)c4ccccc4)C(C)=C1C3(C)C)[C@]1(OC(C)=O)CO[C@@H]1C[C@@H]2O

What was measured:
A549 cells = test: Tumor vertical migration (Transwell chambers); assay type: cell-based; details: 48 h
Protocol: A549 cells in the logarithmic growth phase were taken, digested with trypsin to prepare a cell suspension, and 100 µL of the cell suspension was inoculated into Transwell chambers with 3.5×10^4 cells per well. A blank group, a positive drug group, and an administration group were set up. […] 600 µL of F-12K medium containing 10% FBS was added to the 24-well plate holding the chambers. After incubation in a 37°C, 5% CO2 incubator for 48 h, the cells were fixed with methanol for 30 min and stained with crystal violet for 10 min. After staining, the cell migration status was photographed under a microscope (model: CKX31SF, manufacturer: OLYMPUS CORPORATION) at a magnification of 100×. Meanwhile, Photoshop 20.0.1 was used for quantitative calculation of the number of migrated tumor cells, and the results were expressed as mean ± SD (n = 3).

[1] = Metabolism in liver microsomes; assay type: in vitro ADME; details: for k / microsomal CLint at 1 µM / half-life at 1 µM: NADPH, 37°C; for microsomal CLint at 1 µM: read-out: CLint(mic); for half-life at 1 µM: read-out: t½
Protocol: 1.85 mg of DOC-AI (or 1.81 mg of PTX-AI) was precisely weighed, 1 mL of DMSO was added, dissolved and mixed well to obtain 1 mM stock solution. 1 mM stock solution was diluted with methanol to 100 µM working solution for sample incubation. 12.5 µL of 20 mg/mL liver microsomes (mouse-derived, Shanghai Quanyang Trading Co., Ltd., batch number: MIC255038; rat-derived, Shanghai Quanyang Trading Co., Ltd., batch number: MIC254034; dog-derived, Shanghai Quanyang Trading Co., Ltd., batch number: MIC257015; monkey-derived, Ruide Liver Disease Research (Shanghai) Co., Ltd., batch number: SYXS; human-derived, Shanghai Quanyang Trading Co., Ltd., batch number: 1210097), 432.5 µL of 100 mM PBS, 25 µL of 20 mM NADPH, and 25 µL of 100 mM MgCl2 were added into a 96-well plate, and after mixing, pre-incubated at 37°C for 5 min. 5 µL of 100 µM working solution was added to the 96-well plate to initiate the reaction. At the set time points, 50 µL of the reaction sample was taken and placed in an EP tube containing 100 µL of ice-cold acetonitrile, vortexed for inactivation, and stored at -90°C for testing. […] Table 4 Results of detection of DOC-AI metabolism in liver microsomes

[2] = Solubility in water (HPLC, saturated solution); assay type: physicochemical; details: for solubility thermodynamic at 15 min: in water (ultrapure), HPLC; for Fold Increase: solubility in water of the conjugate versus the free drug (DOC or PTX)
Protocol: 25, 50, 100, 200, 300, and 400 µL of the above stock solutions were precisely measured, added into 1 mL volumetric flasks, and diluted to the mark with methanol to obtain a series of standard solutions with concentrations of 25, 50, 100, 200, 300, and 400 µg/mL, respectively. The peak areas of the series of standard solutions were detected by HPLC (mobile phase: 0.065% TFA in water + 0.05% TFA; chromatographic column: YMC-Triart C18; wavelength: 220 nm) to construct a concentration-peak area standard curve, where the abscissa represents concentration and the ordinate represents peak area.
The peak area of the sample was detected by HPLC, and its saturation in water was calculated through the concentration-peak area standard curve. Table 6 Results of detection of solubility of polypeptide conjugates in water

[3] = test system: SK-mel-2 (human malignant melanoma cells); test: Tumor cell proliferation inhibition (CCK8); assay type: cell-based; details: IC50 of free drug / IC50 of polypeptide conjugate
Description: (§1) Human highly metastatic hepatocellular carcinoma cells HCCLM3, human highly metastatic gastric cancer cells MKN45, human gastric cancer cells BGC-823 and MGC-803, non-small cell lung cancer cells A549, human pancreatic cancer cells ASPC-1, human colon cancer cells LoVo, human ovarian cancer cells A2780, human cervical cancer cells SiHa, human malignant melanoma cells SK-mel-2 and M14, human osteosarcoma cells Saos-2, human bladder transitional cell carcinoma cells T24, human brain glioblastoma cells U87-MG, human lymphoma cells Raji, and human epidermal cancer cells A431 were selected for the experiment. Among them, HCCLM3 cells, MKN45 cells, BGC-823 cells, MGC-803 cells, A431 cells and A549 cells were provided by Nanjing Anji Biotechnology Co., Ltd., and the other cells were provided by Nanjing Ouji Pharmaceutical Technology Service Co., Ltd.
(§2) The aforementioned tumor cells were preserved in a medium containing 10% fetal bovine serum and 1% penicillin-streptomycin, and incubated at 37°C with 5% CO2 and 95% humidity. The aforementioned tumor cells were cultured in T75 flasks with an experimental cell density of 80%. The aforementioned tumor cell lines were mycoplasma-negative.
(§3) Tumor cells in the logarithmic growth phase were taken for the experiment. The cells were digested, counted, and prepared into a cell suspension with a concentration of 1×10^5 cells/mL, which was then inoculated into a 96-well plate (100 µL per well). The 96-well plate was incubated in a 37°C, 5% CO2 incubator for 24 hours. […] After incubating the plate in the incubator for 72 h, the cell morphology of each group was observed under a microscope. Then, 10 µL of CCK8 solution (Nanjing Enjing Biotechnology Co., Ltd.) was added to each well, and the plate was further incubated in the cell incubator for 4 h. After incubation, the absorbance was measured at 450 nm, and the tumor cell proliferation inhibition rate was calculated. The efficiency ratio was the ratio of the IC50 value of the free drug to that of the polypeptide conjugate. Table 1 Tumor cell proliferation inhibition rates of polypeptide conjugates

[4] = test system: ASPC-1 (human pancreatic cancer cells); test: Tumor cell proliferation inhibition (CCK8); assay type: cell-based; details: IC50 of free drug / IC50 of polypeptide conjugate
Description: as §1, §2, §3

[5] = test system: A549 (non-small cell lung cancer cells); test: Tumor cell proliferation inhibition (CCK8); assay type: cell-based; details: IC50 of free drug / IC50 of polypeptide conjugate
Description: as §1, §2, §3

[6] = test system: HCCLM3 (human highly metastatic hepatocellular carcinoma cells); test: Tumor cell proliferation inhibition (CCK8); assay type: cell-based; details: IC50 of free drug / IC50 of polypeptide conjugate
Description: as §1, §2, §3

[7] = test system: Raji (human lymphoma cells); test: Tumor cell proliferation inhibition (CCK8); assay type: cell-based; details: IC50 of free drug / IC50 of polypeptide conjugate
Description: as §1, §2, §3

[8] = Human liver microsomes 0.5 mg/mL
[9] = Monkey liver microsomes 0.5 mg/mL
[10] = Mouse liver microsomes 0.5 mg/mL

| SMILES | CLint(liver) ([1]; Dog liver microsomes 0.5 mg/mL) | Clearance Rate Level ([1]; Dog liver microsomes 0.5 mg/mL) | Hepatic Extraction Ratio (EH) ([1]; Dog liver microsomes 0.5 mg/mL) | k ([1]; Dog liver microsomes 0.5 mg/mL) | microsomal CLint at 1 µM ([1]; Dog liver microsomes 0.5 mg/mL) | half-life at 1 µM ([1]; Dog liver microsomes 0.5 mg/mL) | CLint(liver) [1, 8] | Clearance Rate Level [1, 8] | Hepatic Extraction Ratio (EH) [1, 8] | k [1, 8] | microsomal CLint at 1 µM [1, 8] | half-life at 1 µM [1, 8] | CLint(liver) [1, 9] | Clearance Rate Level [1, 9] | Hepatic Extraction Ratio (EH) [1, 9] | k [1, 9] | microsomal CLint at 1 µM [1, 9] | half-life at 1 µM [1, 9] | CLint(liver) [1, 10] | Clearance Rate Level [1, 10] | also measured |
| --- | --- | --- | --- | --- | --- | --- | --- | --- | --- | --- | --- | --- | --- | --- | --- | --- | --- | --- | --- | --- | --- |
| CC(=O)O[C@@]12CO[C@@H]1C[C@H](O)[C@@]1(C)C(=O)[C@H](O)C3=C(C)[C@@H](OC(=O)[C@H](OC(=O)CCC(=O)N[C@@H](CCCNC(=N)N)C(=O)N[C@@H](CO)C(=O)N4CCC[C@H]4C(=O)N[C@@H](Cc4ccc(O)cc4)C(=O)N[C@@H](C)C(=O)N[C@@H](CC(N)=O)C(=O)N[C@@H](CO)C(=O)O)[C@@H](NC(=O)OC(C)(C)C)c4ccccc4)C[C@@](O)([C@@H](OC(=O)c4ccccc4)[C@H]21)C3(C)C [DOC-AI] | 66.2 mL/min/kg | Medium | 0.682 | 0.0230 | 45.9 µL/min/mg | 30.2 min | 23.4 mL/min/kg | Medium | 0.531 | 0.0130 | 26 µL/min/mg | 53.3 min | 140 mL/min/kg | High | 0.763 | 0.0520 | 104 µL/min/mg | 13.3 min | 324 mL/min/kg | High | vertical migration rate (A549 cells; 10 nM DOC-AI compared with 10 nM DOC): lower than that of 10 nM DOC; vertical migration of A549 cells (A549 cells; 1 µM, 100 nM, 10 nM, 1 nM, compared with the blank group): effectively inhibited the vertical migration of A549 cells in a concentration-dependent manner; effective concentration (vertical migration) (A549 cells; A549, lowest effective concentration): 1 nM; Hepatic Extraction Ratio (EH) [1, 10]: 0.783; k [1, 10]: 0.0410; microsomal CLint at 1 µM [1, 10]: 81.9 µL/min/mg; half-life at 1 µM [1, 10]: 16.9 min; CLint(liver) ([1]; Rat liver microsomes 0.5 mg/mL): 108 mL/min/kg; Clearance Rate Level ([1]; Rat liver microsomes 0.5 mg/mL): Medium; Hepatic Extraction Ratio (EH) ([1]; Rat liver microsomes 0.5 mg/mL): 0.662; k ([1]; Rat liver microsomes 0.5 mg/mL): 0.0301; microsomal CLint at 1 µM ([1]; Rat liver microsomes 0.5 mg/mL): 60.1 µL/min/mg; half-life at 1 µM ([1]; Rat liver microsomes 0.5 mg/mL): 23.1 min; solubility thermodynamic at 15 min [2]: 4430 µg/mL (≈ 2630 µM); Fold Increase [2]: 1.62×10^5; Efficiency Ratios [3]: 1.00; Efficiency Ratios [4]: 2.31; Efficiency Ratios [5]: 1.39; Efficiency Ratios [6]: 1.63 |
| CC(=O)O[C@H]1C(=O)[C@@]2(C)[C@H]([C@H](OC(=O)c3ccccc3)[C@]3(O)C[C@H](OC(=O)[C@H](OC(=O)CCC(=O)N[C@@H](CCCNC(=N)N)C(=O)N[C@@H](CO)C(=O)N4CCC[C@H]4C(=O)N[C@@H](Cc4ccc(O)cc4)C(=O)N[C@@H](C)C(=O)N[C@@H](CC(N)=O)C(=O)N[C@@H](CO)C(=O)O)[C@@H](NC(=O)c4ccccc4)c4ccccc4)C(C)=C1C3(C)C)[C@]1(OC(C)=O)CO[C@@H]1C[C@@H]2O [PTX-AI] ({Paclitaxel(2'-O-succinyl)}-RSPYANS-OH) | 81.4 mL/min/kg | High | 0.725 | 0.0283 | 56.6 µL/min/mg | 24.5 min | 26.6 mL/min/kg | Medium | 0.562 | 0.0148 | 29.5 µL/min/mg | 46.9 min | 148 mL/min/kg | High | 0.772 | 0.0548 | 110 µL/min/mg | 12.7 min | 405 mL/min/kg | High | Hepatic Extraction Ratio (EH) [1, 10]: 0.818; k [1, 10]: 0.0511; microsomal CLint at 1 µM [1, 10]: 102 µL/min/mg; half-life at 1 µM [1, 10]: 13.6 min; CLint(liver) ([1]; Rat liver microsomes 0.5 mg/mL): 122 mL/min/kg; Clearance Rate Level ([1]; Rat liver microsomes 0.5 mg/mL): Medium; Hepatic Extraction Ratio (EH) ([1]; Rat liver microsomes 0.5 mg/mL): 0.689; k ([1]; Rat liver microsomes 0.5 mg/mL): 0.0339; microsomal CLint at 1 µM ([1]; Rat liver microsomes 0.5 mg/mL): 67.8 µL/min/mg; half-life at 1 µM ([1]; Rat liver microsomes 0.5 mg/mL): 20.4 min; solubility thermodynamic at 15 min [2]: 5.56 µg/mL (≈ 3.21 µM); Fold Increase [2]: 46.33; Efficiency Ratios [5]: 2.05; Efficiency Ratios [6]: 3.70; Efficiency Ratios [7]: 1.09 |
